{
  "source": "patent US12186374B2",
  "about": "(Sanofi-Aventis Deutschland GmbH, priority 2014, dated 2025)",
  "key": {"[1]": {"tested_on": "patients with Type 2 diabetes mellitus (T2DM)", "assay": "ALT increase reported on AE form (Example 2)", "conditions": "on-treatment period"}, "[2]": {"tested_on": "patients with Type 2 diabetes mellitus (T2DM)", "assay": "Patient disposition / treatment discontinuation (Example 2)", "assay_type": "in vivo", "conditions": "randomized population"}, "[3]": {"tested_on": "patients with T2DM", "design": "species or system human", "conditions": "in vivo", "description": "(§1) In case the investigator or the patient recognizes any signs of local intolerability at injection site this should be recorded on the standard AE page in the e-CRF. AEs related to local intolerability at the injection site will be identified by searching the term “injection site” in either the PTs coded from the investigator reported terms or the PTs coded from the ARAC diagnosis terms. The number (%) of patients with related events will be summarized by treatment group."}, "[4]": {"tested_on": "patients with Type 2 diabetes mellitus (T2DM)", "design": "species or system human", "conditions": "in vivo", "description": "as §1"}, "[5]": {"tested_on": "patients with Type 2 diabetes mellitus (T2DM)", "assay": "Increased calcitonin reported on AE form (Example 2)", "design": "Patients with TEAE of increased calcitonin: dose or concentration left out as unconfirmed"}, "[6]": {"conditions": "on-treatment period, Safety population"}},
  "data": [
    {"substance": "Gly(A21)-Arg(B31)-Arg(B32)-human insulin [Insulin Glargine]", "values": [
      {"measurement": "Patients with AE of ALT increase", "setting": "[1]; Example 2", "result": 2, "unit": "patients"},
      {"measurement": "Events reported on the AE form for ALT increase: Alanine aminotransferase increased", "setting": "[1]; Safety population", "result": "2 (0.4%) n (%)"},
      {"measurement": "Patients with events reported on the AE form for ALT increase: Any", "setting": "[1]; Safety population", "result": "2 (0.4%) n (%)"},
      {"measurement": "Status at last study contact: Dead, %", "setting": "[2]", "result": 0.9, "unit": "%"},
      {"measurement": "Status at last study contact: Dead, number of patients", "setting": "[2]", "result": 4, "unit": "patients"},
      {"measurement": "Study treatment discontinuation due to adverse event, %", "setting": "[2]", "result": 1.9, "unit": "%"},
      {"measurement": "Study treatment discontinuation due to adverse event, number of patients", "setting": "[2]", "result": 9, "unit": "patients"},
      {"measurement": "Study treatment discontinuation due to lack of efficacy, number of patients", "setting": "[2]", "result": 0, "unit": "patients"},
      {"measurement": "% of patients experiencing injection site reactions: Any injection site reactions", "setting": "[3]", "result": 0.5, "unit": "%"},
      {"measurement": "% of patients experiencing injection site reactions: Injection site hypertrophy", "setting": "[3]", "result": 0.3, "unit": "%"},
      {"measurement": "% of patients experiencing injection site reactions: Injection site reaction", "setting": "[3]", "result": 0.3, "unit": "%"},
      {"measurement": "% of patients experiencing injection site reactions: PTs coded from the investigator reported terms", "setting": "[3]", "result": 0.5, "unit": "%"},
      {"measurement": "Number of patients experiencing injection site reactions: Any injection site reactions", "setting": "[3]", "result": 2},
      {"measurement": "Number of patients experiencing injection site reactions: Injection site hypertrophy", "setting": "[3]", "result": 1},
      {"measurement": "Number of patients experiencing injection site reactions: Injection site reaction", "setting": "[3]", "result": 1},
      {"measurement": "Number of patients experiencing injection site reactions: PTs coded from the investigator reported terms", "setting": "[3]", "result": 2},
      {"measurement": "Patients who experienced injection site reactions", "setting": "[3]", "result": 2, "unit": "patients"},
      {"measurement": "Any injection site reactions", "setting": "[4]", "result": "8 (1.7%) Number (%)"},
      {"measurement": "Injection site bruising", "setting": "[4]", "result": "4 (0.9%) Number (%)"},
      {"measurement": "Injection site discomfort", "setting": "[4]", "result": "0 Number (%)"},
      {"measurement": "Injection site erythema", "setting": "[4]", "result": "0 Number (%)"},
      {"measurement": "Injection site haemorrhage", "setting": "[4]", "result": "2 (0.4%) Number (%)"},
      {"measurement": "Injection site irritation", "setting": "[4]", "result": "0 Number (%)"},
      {"measurement": "Injection site nodule", "setting": "[4]", "result": "0 Number (%)"},
      {"measurement": "Injection site pain", "setting": "[4]", "result": "2 (0.4%) Number (%)"},
      {"measurement": "Injection site papule", "setting": "[4]", "result": "0 Number (%)"},
      {"measurement": "Injection site rash", "setting": "[4]", "result": "0 Number (%)"},
      {"measurement": "Injection site reactions, % of patients", "setting": "[4]", "result": 1.7, "unit": "%"},
      {"measurement": "Injection site reactions: PTs coded from the ARAC diagnosis terms", "setting": "[4]", "result": "0 Number (%)"},
      {"measurement": "Injection site reactions: PTs coded from the investigator reported terms", "setting": "[4]", "result": "8 (1.7%) Number (%)"},
      {"measurement": "Injection site swelling", "setting": "[4]", "result": "1 (0.2%) Number (%)"},
      {"measurement": "Injection site warmth", "setting": "[4]", "result": "1 (0.2%) Number (%)"},
      {"measurement": "Patients with TEAE of increased calcitonin", "setting": "[5]; Example 2", "result": "One"},
      {"measurement": "Events reported on the AE form for increased calcitonin (≥20 ng/L): Blood calcitonin increased", "setting": "[5]; [6]", "result": "1 (0.2%) n (%)"},
      {"measurement": "Patients with events reported on the AE form for increased calcitonin (≥20 ng/L): Any", "setting": "[5]; [6]", "result": "1 (0.2%) n (%)"}
    ]}
  ]
}
